Experimental data as given in US20140287990A1 (published 2014).

B1: Pf MSP1-19, C-terminal fragment of the P. falciparum merozoite surface protein MSP1 (other)
chain: NISQHQCVKKQCPENSGCFRHLDEREECKCLLNYKQEGDKCVENPNPTCNENNGGCDADATCTEEDSGSSRKKITCECTKPDSYPLFDGIFCS
notes: domain: MSP1-19; Immobilised on CM5 sensor chips
B2: azurin from Pseudomonas aeruginosa (other)
chain: AECSVDIQGNDQMQFNTNAITVDKSCKQFTVNLSHPGNLPKNVMGHNWVLSTAADMQGVVTDGMASGLDKDYLKPDDSRVIAHTKLIGSGEKDSVTFDVSKLKEGEQYMFFCTFPGHSALMKGTLTLK
notes: Recombinant cupredoxin (copper protein) expressed in E. coli JM109 from pUC19-paz; also called wt azurin; wt-azurin
B4: DC-SIGN (DC-specific intercellular adhesion molecule 3-grabbing nonintegrin) (receptor, UniProt Q9NNX6 62-404, looked up)
chain: KVPSSISQEQSRQDAIYQNLTQLKAAVGELSEKSKLQEIYQELTQLKAAVGELPEKSKLQEIYQELTRLKAAVGELPEKSKLQEIYQELTWLKAAVGELPEKSKMQEIYQELTRLKAAVGELPEKSKQQEIYQELTRLKAAVGELPEKSKQQEIYQELTRLKAAVGELPEKSKQQEIYQELTQLKAAVERLCHPCPWEWTFFQGNCYFMSNSQRNWHDSITACKEVGAQLVVIKSAEEQNFLQLQSSRSNRFTWMGLSDLNQEGTWQWVDGSPLLPSFKQYWNRGEPNNVGEEDCAEFSGNGWNDDKCNLAKFWICKKSAASCSRDEEQFLSPAPATPNPPPA
notes: Immobilised on a CM5 sensor chip
B5: Laz from Neisseria gonorrhoeae F62 (other)
chain: CSQEPAAPAAEATPAGEAPASEAPAAEAAPADAAEAPAAGNCAATVESNDNMQFNTKDIQVSKACKEFTITLKHTGTQPKASMGHNLVIAKAEDMDGVFKDGVGAADTDYVKPDDARVVAHTKLIGGGEESSLTLDPAKLADGDYKFACTFPGHGALMNGKVTLVD
notes: also called Neisserial Laz protein

What was measured:
[1] = target: GST-Azu 88-113 (GST fused in frame to azurin amino acids 88 to 113) (Pseudomonas aeruginosa, UniProt P08515 1-218 = GST); assay: SPR, MSP1-19 immobilised on CM5, GST-Azu fusion series
[2] = target: T1, glutathione S-transferase (GST) (UniProt P08515 1-218 = GST); assay: SPR, MSP1-19 immobilised on CM5
T1 construct: Control protein in the SPR experiments

[3] = target: T2, GST-Azu 36-128 (GST fused in frame to azurin amino acids 36 to 128) (Pseudomonas aeruginosa, UniProt P08515 1-218 = GST); assay: SPR, MSP1-19 immobilised on CM5
T2 construct: Azurin fragment cloned into the BamHI and EcoRI sites of pGEX-5X

[4] = target: T3, GST-Azu 36-89 (GST fused in frame to azurin amino acids 36 to 89) (Pseudomonas aeruginosa, UniProt P08515 1-218 = GST); assay: SPR, MSP1-19 immobilised on CM5
T3 construct: also called pGST-azu 36-89 product

[5] = target: B2; assay: SPR (Biacore X), MSP1-19 immobilised on CM5, equilibrium response fitted to Req=Rmax/(1+(Kd/C))
[6] = target: B5; assay: as above
[7] = target: B4; assay: SPR, DC-SIGN immobilised on CM5, proteins injected at 0-100 nM, equilibrium response fitted to Req=Rmax/(1+(Kd/C))
[8] = target: HIV-1 gag (HIV-1, UniProt P04591 1-500); assay: SPR, azurin immobilised on CM5 (target taken from the preceding sentence)
[9] = target: T4, HIV-1 nef (HIV-1, UniProt P04601 1-206); assay: as above
T4 sequence: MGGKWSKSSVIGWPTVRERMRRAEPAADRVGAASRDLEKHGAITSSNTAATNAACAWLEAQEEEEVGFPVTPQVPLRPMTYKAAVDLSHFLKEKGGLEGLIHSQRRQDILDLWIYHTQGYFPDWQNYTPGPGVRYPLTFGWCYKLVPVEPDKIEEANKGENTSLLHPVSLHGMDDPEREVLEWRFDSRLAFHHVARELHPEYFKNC

[10] = target: T5, ICAM-3 (UniProt P32942 30-485, limits assumed); assay: SPR, azurin immobilised on CM5, 1 mg/ml CM5 (carboxymethyldextran) in HBS-EP running buffer
T5 sequence (looked up): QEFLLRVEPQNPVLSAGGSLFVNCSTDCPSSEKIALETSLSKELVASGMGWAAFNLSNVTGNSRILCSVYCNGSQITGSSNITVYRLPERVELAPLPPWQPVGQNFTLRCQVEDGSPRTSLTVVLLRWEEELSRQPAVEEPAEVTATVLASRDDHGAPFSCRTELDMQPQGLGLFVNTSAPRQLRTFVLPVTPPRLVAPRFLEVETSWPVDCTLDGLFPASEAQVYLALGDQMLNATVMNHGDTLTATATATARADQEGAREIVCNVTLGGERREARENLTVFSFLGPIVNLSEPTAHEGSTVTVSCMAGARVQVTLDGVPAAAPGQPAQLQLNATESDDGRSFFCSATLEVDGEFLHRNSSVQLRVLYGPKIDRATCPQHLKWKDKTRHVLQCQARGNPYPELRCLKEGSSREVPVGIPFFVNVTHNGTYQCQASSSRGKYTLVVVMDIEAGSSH

[11] = target: T6, NCAM (UniProt P13591 20-718); assay: as above
T6 construct: also called Neural Cell Adhesion Molecule

[12] = target: T7, CD4 (UniProt P01730 26-396); assay: SPR, CD4 immobilised on CM5 (CD4-CM5), equilibrium response fitted to Req=Rmax/(1+(Kd/C))
T7 construct: Bought protein; Used both immobilised on CM5 and as eluent

[13] = target: T8, Pf MSP1-42, C-terminal fragment of the P. falciparum merozoite surface protein MSP1 (Plasmodium falciparum, UniProt Q8I0U8 1327-1699); assay: SPR (Biacore X), MSP1-42 immobilised on CM5, equilibrium response fitted to Req=Rmax/(1+(Kd/C))
T8 construct: domain: MSP1-42; Immobilised on CM5 sensor chips
T8 sequence: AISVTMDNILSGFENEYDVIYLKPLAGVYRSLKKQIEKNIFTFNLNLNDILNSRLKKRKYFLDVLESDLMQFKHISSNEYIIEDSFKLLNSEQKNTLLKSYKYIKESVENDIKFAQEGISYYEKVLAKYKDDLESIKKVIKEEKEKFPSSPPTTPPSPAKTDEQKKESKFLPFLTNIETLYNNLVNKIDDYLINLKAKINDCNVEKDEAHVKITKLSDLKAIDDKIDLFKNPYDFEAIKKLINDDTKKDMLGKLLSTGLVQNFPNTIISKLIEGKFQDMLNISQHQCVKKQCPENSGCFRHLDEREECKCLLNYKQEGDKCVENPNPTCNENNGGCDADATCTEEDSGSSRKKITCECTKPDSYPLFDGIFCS

[14] = target: HIV-1 gp41 (HIV-1, UniProt P04578 512-684); assay: SPR, azurin immobilised on CM5
[15] = target: T9, ICAM-2 (UniProt P13598 25-223); assay: SPR, azurin immobilised on CM5
T9 sequence: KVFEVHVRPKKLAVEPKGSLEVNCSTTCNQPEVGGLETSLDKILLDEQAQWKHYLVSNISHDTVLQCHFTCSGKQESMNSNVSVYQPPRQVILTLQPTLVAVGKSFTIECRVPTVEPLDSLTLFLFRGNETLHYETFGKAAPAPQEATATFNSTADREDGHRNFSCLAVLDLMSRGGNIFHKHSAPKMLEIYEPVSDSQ

[16] = target: ICAM-1 (UniProt P05362 28-480); assay: SPR, azurin immobilised on CM5
[17] = target: T7, CD4; assay: SPR, azurin immobilised on CM5 (Az-CM5), 1 mg/ml CM5 in HBS-EP running buffer
[18] = target: B1; assay: SPR (Biacore X), MSP1-19 immobilised on CM5, equilibrium response fitted to Req=Rmax/(1+(Kd/C))
[19] = target: T5, ICAM-3; assay: SPR, DC-SIGN immobilised on CM5, proteins injected at 0-100 nM, equilibrium response fitted to Req=Rmax/(1+(Kd/C))
[20] = target: B1; assay: SPR, MSP1-19 immobilised on CM5

GST-Azu 88-113 (GST fused in frame to azurin amino acids 88 to 113), sequence (P08515 1-218, tags left off): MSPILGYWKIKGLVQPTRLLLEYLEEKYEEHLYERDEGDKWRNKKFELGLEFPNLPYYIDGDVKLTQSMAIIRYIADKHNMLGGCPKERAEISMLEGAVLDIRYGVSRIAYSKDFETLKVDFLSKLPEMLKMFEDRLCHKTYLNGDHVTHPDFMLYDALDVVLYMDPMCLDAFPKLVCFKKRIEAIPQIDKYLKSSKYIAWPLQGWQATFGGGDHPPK
T1 sequence (P08515 whole entry): as the sequence (P08515 1-218, tags left off) above
T3 sequence (P08515 1-218, tags or fused parts left off): as the sequence (P08515 1-218, tags left off) above
ICAM-1, sequence (P05362 28-480 limits assumed): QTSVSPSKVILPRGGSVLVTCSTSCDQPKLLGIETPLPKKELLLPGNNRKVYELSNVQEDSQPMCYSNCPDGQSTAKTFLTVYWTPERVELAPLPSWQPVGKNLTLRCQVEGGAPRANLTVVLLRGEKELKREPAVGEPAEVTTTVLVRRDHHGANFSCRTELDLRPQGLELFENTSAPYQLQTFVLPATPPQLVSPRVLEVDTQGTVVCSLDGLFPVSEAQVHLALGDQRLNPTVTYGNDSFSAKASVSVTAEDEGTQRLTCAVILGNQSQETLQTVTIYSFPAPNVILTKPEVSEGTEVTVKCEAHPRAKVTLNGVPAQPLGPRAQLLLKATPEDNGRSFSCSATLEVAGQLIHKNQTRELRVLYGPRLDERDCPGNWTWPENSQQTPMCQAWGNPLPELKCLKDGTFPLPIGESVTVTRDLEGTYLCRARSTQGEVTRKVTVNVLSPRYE

B1
binding result [1]: no binding | binding result [2]: no binding (tested: 0.05-300 nM (FIG. 7 legend)) | Kd [3]: 24.5 nM | Kd [4]: 20.9 nM | Kd [5]: 32.2 nM | Kd [6]: 26.2 nM

B2
Kd [7]: 0.83 nM | binding result [8]: no binding | binding result [9]: no binding | Kd [10]: 19.5 nM | Kd [11]: 20 nM | Kd [12]: 36.9 nM | Kd [13]: 54.3 nM | binding result [14]: no binding | binding result [15]: no binding | binding result [16]: no binding | Kd [17]: 25.1 nM

B3: H.8-azurin (H.8 epitope of Laz fused in frame to the N-terminal part of P. aeruginosa azurin) (other)
chain: CSQEPAAPAAEATPAGEAPASEAPAAEAAPADAAEAPAAAECSVDIQGNDQMQFNTNAITVDKSCKQFTVNLSHPGNLPKNVMGHNWVLSTAADMQGVVTDGMASGLDKDYLKPDDSRVIAHTKLIGSGEKDSVTFDVSKLKEGEQYMFFCTFPGHSALMKGTLTLK
notes: also called H.8-Paz; H.8-paz
Kd [13]: 14.3 nM | Kd [18]: 11.8 nM

B4
Kd [19]: 0.93 nM

B5
Kd [13]: 45.6 nM

B6: H.8-GST (H.8 epitope fused in the N-terminal of GST) (other)
chain: CSQEPAAPAAEATPAGEAPASEAPAAEAAPADAAEAPAA
notes: not shown: glutathione S-transferase (GST) of the commercial pGEX-5X-3 / pET29a-gst vectors
binding result [20]: no binding (tested: 0.05-300 nM (FIG. 7 legend))
